Laboratory results published in PMC12216677, “Structural dynamics of IDR interactions in human SFPQ and implications for liquid–liquid phase separation” (Acta Crystallographica Section D: Structural Biology, 2025).

T1: full-length SFPQ (splicing factor proline- and glutamine-rich) (Homo sapiens), P23246
T1 chain: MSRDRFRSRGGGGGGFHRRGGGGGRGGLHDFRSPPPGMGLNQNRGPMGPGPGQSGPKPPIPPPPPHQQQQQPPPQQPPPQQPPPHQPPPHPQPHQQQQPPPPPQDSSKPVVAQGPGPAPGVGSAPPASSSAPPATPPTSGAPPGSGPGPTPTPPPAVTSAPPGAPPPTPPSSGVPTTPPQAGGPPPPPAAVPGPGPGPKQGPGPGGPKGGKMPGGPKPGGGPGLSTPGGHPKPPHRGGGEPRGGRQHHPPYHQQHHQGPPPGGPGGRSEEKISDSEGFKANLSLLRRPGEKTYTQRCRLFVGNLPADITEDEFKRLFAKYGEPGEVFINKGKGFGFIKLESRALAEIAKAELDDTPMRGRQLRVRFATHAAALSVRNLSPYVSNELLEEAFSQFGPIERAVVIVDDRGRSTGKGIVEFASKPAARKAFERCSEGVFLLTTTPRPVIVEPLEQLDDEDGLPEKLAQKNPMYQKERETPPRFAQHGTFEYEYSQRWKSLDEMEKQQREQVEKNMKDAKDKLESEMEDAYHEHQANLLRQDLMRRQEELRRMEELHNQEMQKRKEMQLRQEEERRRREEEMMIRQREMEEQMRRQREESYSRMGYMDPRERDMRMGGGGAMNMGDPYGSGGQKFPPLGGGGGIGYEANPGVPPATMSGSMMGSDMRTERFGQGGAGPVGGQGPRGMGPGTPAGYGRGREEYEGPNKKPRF


Assays:
[1] = biological target: the molecule itself; assay: SEC-SAXS; inline SEC-SAXS co-flow, Superdex 200 5/150, 500 mM KNO3, 20 mM HEPES pH 7.4, 5% glycerol, 1 mM DTT, 25 °C; injected at 4.2 mg/ml (full length) or 5 mg/ml (1–598)
[2] = biological target: the molecule itself; assay: SEC-SAXS; inline SEC-SAXS co-flow, Superdex 200 5/150, low salt: 150 mM KCl, 20 mM HEPES pH 7.4, 5% glycerol, 5 mM MgCl2, 1 mM DTT, 25 °C; injected at 4.91 mg/ml
[3] = biological target: T1, full-length SFPQ (splicing factor …); assay: SANS; static cell, 1:20 hSFPQ:dSFPQ at 0.63 mg/ml, no match-out, 150 mM KCl, 1.5% glycerol, 20 mM HEPES, 1 mM DTT pH 7.4 in H2O; conditions: remark: other sources report otherwise
[4] = biological target: T1, full-length SFPQ (splicing factor …); assay: SEC-SAXS; inline SEC-SAXS co-flow, Superdex 200 5/150, 500 mM KNO3, 20 mM HEPES pH 7.4, 5% glycerol, 1 mM DTT, 25 °C; injected at 4.2 mg/ml (full length) or 5 mg/ml (1–598); conditions: remark: other sources report otherwise

stoichiometry N [3] | stoichiometry N [4] | Binder | stoichiometry N [1] | stoichiometry N [2]
 |  | SFPQ residues 1–598 (domain or fragment, Homo sapiens, UniProt P23246 1-598, looked up, The GFP tag was removed with TEV protease; that the His tag left with it is surmised from the second nickel column) MSRDRFRSRGGGGGGFHRRGGGGGRGGLHDFRSPPPGMGLNQNRGPMGPGPGQSGPKPPIPPPPPHQQQQQPPPQQPPPQQPPPHQPPPHPQPHQQQQPPPPPQDSSKPVVAQGPGPAPGVGSAPPASSSAPPATPPTSGAPPGSGPGPTPTPPPAVTSAPPGAPPPTPPSSGVPTTPPQAGGPPPPPAAVPGPGPGPKQGPGPGGPKGGKMPGGPKPGGGPGLSTPGGHPKPPHRGGGEPRGGRQHHPPYHQQHHQGPPPGGPGGRSEEKISDSEGFKANLSLLRRPGEKTYTQRCRLFVGNLPADITEDEFKRLFAKYGEPGEVFINKGKGFGFIKLESRALAEIAKAELDDTPMRGRQLRVRFATHAAALSVRNLSPYVSNELLEEAFSQFGPIERAVVIVDDRGRSTGKGIVEFASKPAARKAFERCSEGVFLLTTTPRPVIVEPLEQLDDEDGLPEKLAQKNPMYQKERETPPRFAQHGTFEYEYSQRWKSLDEMEKQQREQVEKNMKDAKDKLESEMEDAYHEHQANLLRQDLMRRQEELRRMEELHNQEMQKRKEMQLRQEEERRRREEEMMIRQREMEEQMRRQREESYS | 2 | 2
2 | 2 | full-length SFPQ (splicing factor proline- and glutamine-rich), P23246 1-707 (natural protein) MSRDRFRSRGGGGGGFHRRGGGGGRGGLHDFRSPPPGMGLNQNRGPMGPGPGQSGPKPPIPPPPPHQQQQQPPPQQPPPQQPPPHQPPPHPQPHQQQQPPPPPQDSSKPVVAQGPGPAPGVGSAPPASSSAPPATPPTSGAPPGSGPGPTPTPPPAVTSAPPGAPPPTPPSSGVPTTPPQAGGPPPPPAAVPGPGPGPKQGPGPGGPKGGKMPGGPKPGGGPGLSTPGGHPKPPHRGGGEPRGGRQHHPPYHQQHHQGPPPGGPGGRSEEKISDSEGFKANLSLLRRPGEKTYTQRCRLFVGNLPADITEDEFKRLFAKYGEPGEVFINKGKGFGFIKLESRALAEIAKAELDDTPMRGRQLRVRFATHAAALSVRNLSPYVSNELLEEAFSQFGPIERAVVIVDDRGRSTGKGIVEFASKPAARKAFERCSEGVFLLTTTPRPVIVEPLEQLDDEDGLPEKLAQKNPMYQKERETPPRFAQHGTFEYEYSQRWKSLDEMEKQQREQVEKNMKDAKDKLESEMEDAYHEHQANLLRQDLMRRQEELRRMEELHNQEMQKRKEMQLRQEEERRRREEEMMIRQREMEEQMRRQREESYSRMGYMDPRERDMRMGGGGAMNMGDPYGSGGQKFPPLGGGGGIGYEANPGVPPATMSGSMMGSDMRTERFGQGGAGPVGGQGPRGMGPGTPAGYGRGREEYEGPNKKPRF |  | 
